Results reported in the supplement of paper PMC7877785.
± gives the uncertainty stated by the source.

Assay: self-splicing fitness, log relative to wild type (ln ratio); higher = more splicing; Tetrahymena group I intron in knt gene, E. coli kanamycin selection, DiMSum; sequences stand for … in CUCUCU…GGAGGGAAAAGUUAUCAGGCAUGCACCUGGUAGCUAGUCUUUAAACCAAUAGAUUGCAUCGGUUUAAAAGGCAAGACCGUCAAAUUGCGGGAAAGGGGUCAACAGCCGUUCAGUACCAAGUCUCAGGGGAAACUUUGAGAUGGCCUUGCAAAGGGUAUGGUAAUAAGCUGACGGACAUGGUCCUAACCACGCAGCCAAGUCCUAAGUCAACAGAUCUUCUGUUGAUAUGGAUGCAGUUCACAGACUAAAUGUCGGUCGGGGAAGAUGUAUUCUUCUCAUAAGAUAUAGUCGGACCUCUCCUUAAUGGGAGCUAGCGGAUGAAGUGAUGCAACACUGGAGCCGCUGGGAACUAAUUUGUAUGCGAAAGUAUAUUGAUUAGUUUUGGAGUACUCGUGGUCG
Method in brief: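 DiMSum derived fitness as the error-weighted combination of fold changes across replicates, kanamycin versus no kanamycin, normalised to wild type. E. coli BL21(DE3) held the library, which randomised all eight P1ex-region intron nucleotides within the knt kanamycin-resistance gene on pET-22b(+). Six replicate transformations grew overnight at 37°C or 30°C on LB agar with or without 25 μg/mL kanamycin, also containing 100 μg/mL carbenicillin, 50 μM IPTG and 0.2% rhamnose, and pooled colonies were amplicon-sequenced on an Illumina HiSeq 2500.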

| Sequence | self-splicing fitness (ln) (30 °C) | self-splicing fitness (ln) (37 °C) |
| --- | --- | --- |
| UCUCAGCAAUAUUACGAUAG | -2.43 ± 0.15 | -0.737 ± 0.15 |
| UCUCAGCAAUAUUACGAUUA | -0.806 ± 0.11 | -0.539 ± 0.12 |
| UCUCAGCAAUAUUACGAUUG | -3.43 ± 0.17 | -2.07 ± 0.17 |
| UCUCAGCAAUAUUACGCAGA | -2.73 ± 0.49 | – |
| UCUCAGCAAUAUUACGCAUC | -3.51 ± 0.21 | -2.32 ± 0.2 |
| UCUCAGCAAUAUUACGCGCC | -3.46 ± 0.25 | -1.25 ± 0.19 |
| UCUCAGCAAUAUUACGGAAG | -1.82 ± 0.18 | -2.93 ± 0.3 |
| UCUCAGCAAUAUUACGGAAU | -3.04 ± 0.26 | -1.85 ± 0.21 |
| UCUCAGCAAUAUUACGGCUU | -3.42 ± 0.2 | -3.05 ± 0.18 |
| UCUCAGCAAUAUUACGGGCC | -2.05 ± 0.2 | -1.37 ± 0.27 |
| UCUCAGCAAUAUUACGGGGA | -2.92 ± 0.21 | -1.98 ± 0.22 |
| UCUCAGCAAUAUUACGGUAU | -3.7 ± 0.21 | -3.05 ± 0.26 |
| UCUCAGCAAUAUUACGUAGA | -0.809 ± 0.091 | -0.77 ± 0.13 |
| UCUCAGCAAUAUUACGUAUU | -3.14 ± 0.2 | -2 ± 0.16 |
| UCUCAGCAAUAUUACGUCGG | -1.51 ± 0.085 | -1.22 ± 0.11 |
| UCUCAGCAAUAUUACGUGAA | -1.14 ± 0.082 | 0.314 ± 0.1 |
| UCUCAGCAAUAUUACGUUUC | -4.29 ± 0.42 | -1.97 ± 0.34 |
| UCUCAGCAAUAUUACGUUUU | -3.4 ± 0.15 | -3.25 ± 0.21 |
| UCUGAGCAAUAUUACGACGA | -0.584 ± 0.11 | 0.197 ± 0.13 |
| UCUGAGCAAUAUUACGAGUA | -2.16 ± 0.16 | -2.17 ± 0.26 |
| UCUGAGCAAUAUUACGAUCU | -3.4 ± 0.35 | -2.52 ± 0.21 |
| UCUGAGCAAUAUUACGCCGA | -1.16 ± 0.21 | 0.184 ± 0.22 |

| Sequence | self-splicing fitness (ln) (30 °C) | self-splicing fitness (ln) (37 °C) |
| --- | --- | --- |
| UCUGAGCAAUAUUACGCUGC | -2.24 ± 0.37 | -1.46 ± 0.34 |
| UCUGAGCAAUAUUACGGCUU | -2.02 ± 0.32 | -2.34 ± 0.32 |
| UCUGAGCAAUAUUACGGGUC | -4.32 ± 0.39 | -2.38 ± 0.3 |
| UCUGAGCAAUAUUACGGUCA | -2.5 ± 0.29 | -1.7 ± 0.29 |
| UCUGAGCAAUAUUACGUACG | – | -2.34 ± 0.35 |
| UCUGAGCAAUAUUACGUCAG | -1.48 ± 0.096 | -0.513 ± 0.11 |
| UCUGAGCAAUAUUACGUGAC | -2.99 ± 0.2 | -2.97 ± 0.27 |
| UCUGAGCAAUAUUACGUGGA | -2.95 ± 0.29 | -1.63 ± 0.18 |
| UCUGAGCAAUAUUACGUGGU | -2.58 ± 0.13 | -2.21 ± 0.15 |
| UCUGAGCAAUAUUACGUGUG | -2.15 ± 0.12 | -1.51 ± 0.12 |
| UCUGAGCAAUAUUACGUUUU | -4.31 ± 0.29 | -3.26 ± 0.28 |
| UCUUAGCAAUAUUACGAAAA | – | -0.128 ± 0.34 |
| UCUUAGCAAUAUUACGAAAG | -2.07 ± 0.35 | -1.12 ± 0.34 |
| UCUUAGCAAUAUUACGAACA | -0.762 ± 0.13 | -1.04 ± 0.14 |
| UCUUAGCAAUAUUACGACAU | -3.836 ± 0.034 | -2.41 ± 0.04 |
| UCUUAGCAAUAUUACGACGA | 0.0588 ± 0.29 | -1.68 ± 0.22 |
| UCUUAGCAAUAUUACGACUU | -3.52 ± 0.31 | -2.47 ± 0.31 |
| UCUUAGCAAUAUUACGAGUU | -2.85 ± 0.16 | -0.665 ± 0.15 |
| UCUUAGCAAUAUUACGAUAG | -1.77 ± 0.17 | -1.63 ± 0.16 |
| UCUUAGCAAUAUUACGAUUU | -3.07 ± 0.18 | -1.09 ± 0.13 |
| UCUUAGCAAUAUUACGCGUU | -3.83 ± 0.34 | -1.75 ± 0.2 |
